Biological target: T1, His6-PLCβ2 (phospholipase Cβ2) (UniProt Q00722 1-1185, CPM (thiol-reactive coumarin) on Cys side chains where printed as CPM-PLCβ2; Dabcyl where printed as PLCβ2 with DAB acceptor; unlabelled elsewhere)
T1 construct: phospholipase C β2; called the full length / whole enzyme; printed mass 133.7 kDa; One construct used CPM-labelled, Dabcyl-labelled or unlabelled; also called PLCß2; CPM-PLCβ2; source: Sf9 cells, baculovirus system, purified
Experiment: other fluorescence titration; activated Gαq and PLCß2, without γ-synuclein; which partner was labelled is not stated
Conditions: both partners purified

T1 sequence (Q00722 whole entry): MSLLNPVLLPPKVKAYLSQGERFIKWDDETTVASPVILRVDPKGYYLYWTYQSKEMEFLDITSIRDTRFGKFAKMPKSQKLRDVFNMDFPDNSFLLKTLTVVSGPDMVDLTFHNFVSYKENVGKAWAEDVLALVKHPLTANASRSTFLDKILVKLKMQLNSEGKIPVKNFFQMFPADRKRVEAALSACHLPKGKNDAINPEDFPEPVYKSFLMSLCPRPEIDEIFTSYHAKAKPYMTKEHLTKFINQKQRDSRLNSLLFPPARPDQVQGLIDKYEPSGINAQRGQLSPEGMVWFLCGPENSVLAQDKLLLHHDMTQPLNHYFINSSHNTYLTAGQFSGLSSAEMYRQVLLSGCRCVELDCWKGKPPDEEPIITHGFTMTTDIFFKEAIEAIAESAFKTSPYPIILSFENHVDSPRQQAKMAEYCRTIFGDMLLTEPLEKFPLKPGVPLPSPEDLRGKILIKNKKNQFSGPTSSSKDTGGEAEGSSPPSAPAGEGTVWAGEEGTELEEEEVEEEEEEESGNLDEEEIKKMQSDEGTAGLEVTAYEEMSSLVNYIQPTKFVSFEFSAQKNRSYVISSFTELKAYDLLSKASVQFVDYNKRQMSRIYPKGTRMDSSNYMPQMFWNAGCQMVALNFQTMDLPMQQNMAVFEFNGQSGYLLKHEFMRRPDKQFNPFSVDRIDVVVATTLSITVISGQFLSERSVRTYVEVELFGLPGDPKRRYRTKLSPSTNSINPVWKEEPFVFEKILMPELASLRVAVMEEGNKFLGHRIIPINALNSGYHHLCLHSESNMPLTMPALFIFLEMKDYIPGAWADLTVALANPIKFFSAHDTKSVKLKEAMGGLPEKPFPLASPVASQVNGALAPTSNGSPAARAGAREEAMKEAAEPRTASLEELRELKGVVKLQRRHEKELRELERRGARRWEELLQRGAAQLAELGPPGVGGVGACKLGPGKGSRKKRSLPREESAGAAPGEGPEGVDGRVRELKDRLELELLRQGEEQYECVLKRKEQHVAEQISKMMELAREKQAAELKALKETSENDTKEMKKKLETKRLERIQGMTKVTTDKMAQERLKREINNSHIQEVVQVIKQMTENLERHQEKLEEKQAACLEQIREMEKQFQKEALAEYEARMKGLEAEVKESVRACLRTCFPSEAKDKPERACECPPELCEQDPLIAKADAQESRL

B1: Gαq(GTPγS) (natural protein, UniProt P50148 1-359, looked up)
chain: MTLESIMACCLSEEAKEARRINDEIERQLRRDKRDARRELKLLLLGTGESGKSTFIKQMRIIHGSGYSDEDKRGFTKLVYQNIFTAMQAMIRAMDTLKIPYKYEHNKAHAQLVREVDVEKVSAFENPYVDAIKSLWNDPGIQECYDRRREYQLSDSTKYYLNDLDRVADPAYLPTQQDVLRVRVPTTGIIEYPFDLQSVIFRMVDVGGQRSERRKWIHCFENVTSIMFLVALSEYDQVLVESDNENRMEESKALFRTIITYPWFQNSSVILFLNKKDLLEEKIMYSHLVDYFPEYDGPQRDAQAAREFILKMFVDLNPDSDKIIYSHFTCATDTENIRFVFAAVKDTILQLNLKEYNLV
notes: source: Sf9 cells, co-expressed with Gβ1 and His6-Gγ2
**Q.** Which Kd does the source give for B1 here?
**A.** 300 ± 200 pM

Source: paper PMC3414502, “γ-Synuclein Interacts with Phospholipase Cβ2 to Modulate G Protein Activation” (PLoS ONE, 2012)
